B1: LINE1-full (parent)
chain: UACGUAGGUGGUUUUCCCCUGAUAGUGCUAAGGGGGCCUGGAAGUUUGGACUGGGCAGAGCUCAACACAGCGUGGCAAAGUGGCUGUGGCUAGACUGCCUCUCUGGAUUCCUCGUCACUCAGCAGGGCAUCUCUGAGAGAAAUGCC

Variants of: B1
Assay: self-cleavage, relative activity (ratio to wild type); higher = more cleavage; in vitro, sequencing; the parent is a self-cleaving ribozyme

Variant | self-cleavage
UACGUAGGUGGUUUUCCCCUGAUAGUGCUAAGGGGGCCUGGAAGUUAGGACUGGGCAGAGCUCAACACAGCGUGGCAGAGUGGCUGUGGCUAGACUGCCUCUCUGGAUUCCUCGUCACUCAGCAGGGCAUCUCUGAGAGAAAUGCC [U47A A78G] | 0.29
UACGUAGGUGGUUUUCCCCUGAUAGUGCUAAGGGGGCCUGGAAGUUAGGACUGGGCAGAGCUCAACACAGCGUGGCAUAGUGGCUGUGGCUAGACUGCCUCUCUGGAUUCCUCGUCACUCAGCAGGGCAUCUCUGAGAGAAAUGCC [U47A A78U] | 2.04
UACGUAGGUGGUUUUCCCCUGAUAGUGCUAAGGGGGCCUGGAAGUUAGGACUGGGCAGAGCUCAACACAGCGUGGCAAAGUGGCUGUGGUUAGACUGCCUCUCUGGAUUCCUCGUCACUCAGCAGGGCAUCUCUGAGAGAAAUGCC [U47A C90U] | 0.03
UACGUAGGUGGUUUUCCCCUGAUAGUGCUAAGGGGGCCUGGAAGUUAGGACUGGGCAGAGCUCAACACAGCGUGGCAAAGUGGCUGUGGCUAGACUGCCUCUCUGGUUUCCUCGUCACUCAGCAGGGCAUCUCUGAGAGAAAUGCC [U47A A107U] | 1.79
UACGUAGGUGGUUUUCCCCUGAUAGUGCUAAGGGGGCCUGGAAGUUAGGACUGGGCAGAGCUCAACACAGCGUGGCAAAGUGGCUGUGGCUAGACUGCCUCUCUGGAUUUCUCGUCACUCAGCAGGGCAUCUCUGAGAGAAAUGCC [U47A C110U] | 0.95
UACGUAGGUGGUUUUCCCCUGAUAGUGCUAAGGGGGCCUGGAAGUUAGGACUGGGCAGAGCUCAACACAGCGUGGCUAAGUGGCUGUGGCUAGACUGCCUCUCUGGAUUCCUCGUCACUCAGCAGGGCAUCUCUGAGAGAAAUGCC [U47A A77U] | 1.46
UACGUAGGUGGUUUUCCCCUGAUAGUGCUAAGGGGGCCUGGAAGUUAGGACUGGGCAGAGCUCAACACAGCGUGGCCAAGUGGCUGUGGCUAGACUGCCUCUCUGGAUUCCUCGUCACUCAGCAGGGCAUCUCUGAGAGAAAUGCC [U47A A77C] | 1.6
UACGUAGGUGGUUUUCCCCUGAUAGUGCUAAGGGGGCCUGGAAGUUAGGACUGGGCAGAGCUCAACACAGCGUGGUAAAGUGGCUGUGGCUAGACUGCCUCUCUGGAUUCCUCGUCACUCAGCAGGGCAUCUCUGAGAGAAAUGCC [U47A C76U] | 1.83
UACGUAGGUGGUUUUCCCCUGAUAGUGCUAAGGGGGCCUGGAAGUUAGGACUGGGCAGAGCUCAACACAGCGUGGCAAAGUGGCUGUGGCUAGACUGCCUCUCUGGAUUCCUCGUCACUCAGCAGGGCAUCUCUGAGAGUAAUGCC [U47A A140U] | 1.25
UACGUAGGUGGUUUUCCCCUGAUAGUGCUAAGGGGGCCUGGAAGUUAGGACUGGGCAGAGCUCAACACUGCGUGGCAAAGUGGCUGUGGCUAGACUGCCUCUCUGGAUUCCUCGUCACUCAGCAGGGCAUCUCUGAGAGAAAUGCC [U47A A69U] | 0.04
UACGUAGGUGGUUUUCCCCUGAUAGUGCUAAGGGGGCCUGGAAGUUAGGACUGGGCAGAGCUCAACACAGCGUGGCAAAGUGGCUGUGGCUAGACUGCCUCUCUGGAUUCCUCGUCACUCUGCAGGGCAUCUCUGAGAGAAAUGCC [U47A A121U] | 1.04
UACGUAGGUGGUUUUCCCCUGAUAGUGCUAAGGGGGCCUGGAAGUUAGGACUGGGCAGAGCUCAACACAGCGUGGCAAAGUGGCUGUGGCUAGACUGCCUCUCUGGAUUCCUCGUCACUCGGCAGGGCAUCUCUGAGAGAAAUGCC [U47A A121G] | 1.39
UACGUAGGUGGUUUUCCCCUGAUAGUGCUAAGGGGGCCUGGAAGUGUGGACUGGGCAGAGCUCAACACAGCGUGGCAAAGUGGCUGUGGCUAGACUGCCUCUCUGGAUUCCCCGUCACUCAGCAGGGCAUCUCUGAGAGAAAUGCC [U46G U112C] | 1.48
UACGUAGGUGGUUUUCCCCUGAUAGUGCUAAGGGGGCCUGGAAGUGUGGACUGGGCAGAGCUCAACACAGCGUGGCAAAGUGGCUGUGGCUAGACUGCCUCUCUGGAUUCCGCGUCACUCAGCAGGGCAUCUCUGAGAGAAAUGCC [U46G U112G] | 0
UACGUAGGUGGUUUUCCCCUGAUAGUGCUAAGGGGGCCUGGAAGUUAGGACUGGGCAGAGCUCAACACAGCGUGGCAAAGUGGCUGUGGCUAGACUGCCUCUCUGGAUUCCUCGUCACUCAGCAGGGCAUCUCUGAGAGAAGUGCC [U47A A142G] | 1.4
UACGUAGGUGGUUUUCCCCUGAUAGUGCUAAGGGGGCCUGGAAGUUAGGACUGGGCAGAGCUCAACACAGCGUGGCAAAGUGGCUGUGGCUAGACUGCCUCUCUGGAUUCCUCGUCACUCAGCAGGGCAUCUCUGAGAGAAAUGCU [U47A C146U] | 1.68
UACGUAGGUGGUUUUCCCCUGAUAGUGCUAAGGGGGCCUGGAAGUUAGGACUGGGCAGAGCUCAACAUAGCGUGGCAAAGUGGCUGUGGCUAGACUGCCUCUCUGGAUUCCUCGUCACUCAGCAGGGCAUCUCUGAGAGAAAUGCC [U47A C68U] | 0.13
UACGUAGGUGGUUUUCCCCUGAUAGUGCUAAGGGGGCCUGGAAGUUAGGACUGGGCAGAGCUCAACACAGCGUGGCAAAGUGGCUGUGGCUAGACUGCCUCUCUGGAUUCAUCGUCACUCAGCAGGGCAUCUCUGAGAGAAAUGCC [U47A C111A] | 1.18
UACGUAGGUGGUUUUCCCCUGAUAGUGCUAAGGGGGCCUGGAAGUUAGGACUGGGCAGAGCUCAACACAGCGUGGCAAGGUGGCUGUGGCUAGACUGCCUCUCUGGAUUCCUCGUCACUCAGCAGGGCAUCUCUGAGAGAAAUGCC [U47A A79G] | 1.05
UACGUAGGUGGUUUUCCCCUGAUAGUGCUAAGGGGGCCUGGAAGUUAGGACUGGGCAGAGCUCAACACAGCGUGGCAAUGUGGCUGUGGCUAGACUGCCUCUCUGGAUUCCUCGUCACUCAGCAGGGCAUCUCUGAGAGAAAUGCC [U47A A79U] | 1.64

Variant | self-cleavage
UACGUAGGUGGUUUUCCCCUGAUAGUGCUAAGGGGGCCUGGAAGUUAGGACUGGGCAGGGCUCAACACAGCGUGGCAAAGUGGCUGUGGCUAGACUGCCUCUCUGGAUUCCUCGUCACUCAGCAGGGCAUCUCUGAGAGAAAUGCC [U47A A59G] | 0.05
UACGUAGGUGGUUUUCCCCUGAUAGUGCUAAGGGGGCCUGGAAGUUAGGACUGGGCAGAGCUCAACACAGCGUGGCAAAGUGGCUGUGGCUAGACUGCCUCUCUGGAUUCCUCGUCACUCAGUAGGGCAUCUCUGAGAGAAAUGCC [U47A C123U] | 0.7
UACGUAGGUGGUUUUCCCCUGAUAGUGCUAAGGGGGCCUGGAAGUUAGGACUGGGCAGAGCUCAACACAGCGUGGCAAAGUGGCUGUGGCUAGACUGCCUCUCUGGAUUCCUCGUCACUCAGCAGGGCGUCUCUGAGAGAAAUGCC [U47A A129G] | 1.43
UACGUAGGUGGUUUUCCCCUGAUAGUGCUAAGGGGGCCUGGAAGUUAGGACUGGGCAGAGCUUAACACAGCGUGGCAAAGUGGCUGUGGCUAGACUGCCUCUCUGGAUUCCUCGUCACUCAGCAGGGCAUCUCUGAGAGAAAUGCC [U47A C63U] | 0.33
UACGUAGGUGGUUUUCCCCUGAUAGUGCUAAGGGGGCCUGGAAGUUAGGACUGGGCAGAGCUCAACGCAGCGUGGCAAAGUGGCUGUGGCUAGACUGCCUCUCUGGAUUCCUCGUCACUCAGCAGGGCAUCUCUGAGAGAAAUGCC [U47A A67G] | 0.38
UACGUAGGUGGUUUUCCCCUGAUAGUGCUAAGGGGGCCUGGAAGUUAGGGCUGGGCAGAGCUCAACACAGCGUGGCAAAGUGGCUGUGGCUAGACUGCCUCUCUGGAUUCCUCGUCACUCAGCAGGGCAUCUCUGAGAGAAAUGCC [U47A A50G] | 1.2
UACGUAGGUGGUUUUCCCCUGAUAGUGCUAAGGGGGCCUGGAAGUUAGGACUGGGCAGAGCUCUACACAGCGUGGCAAAGUGGCUGUGGCUAGACUGCCUCUCUGGAUUCCUCGUCACUCAGCAGGGCAUCUCUGAGAGAAAUGCC [U47A A64U] | 0.44
UACGUAGGUGGUUUUCCCCUGAUAGUGCUAAGGGGGCCUGGAAGUUAGGACUGGGCAGAGCUCCACACAGCGUGGCAAAGUGGCUGUGGCUAGACUGCCUCUCUGGAUUCCUCGUCACUCAGCAGGGCAUCUCUGAGAGAAAUGCC [U47A A64C] | 0.25
UACGUAGGUGGUUUUCCCCUGAUAGUGCUAAGGGGGCCUGGAAGUUAGGACUGGGCAGAGCUCAACACAGCGUGGCAAAGUGGCUGUGGCUAGACUGCCUCUCUGGAUUCCUUGUCACUCAGCAGGGCAUCUCUGAGAGAAAUGCC [U47A C113U] | 1.17
UACGUAGGUGGUUUUCCCCUGAUAGUGCUAAGGGGGCCUGGAAGUGUGGACUGGGCAGAGCUCAACACAGCGUGGCAAAGUGGCUGUGGCUAGACUGCCUCUCUGGAUUCCUCGUCACUCAGCAGGGCAUCUCUGAGAGAAACGCC [U46G U143C] | 1.43
UACGUAGGUGGUUUUCCCCUGAUAGUGCUAAGGGGGCCUGGAAGUUAGGACUGGGCAGAGCUCAACACAGCGUGGCAAAGUGGCUGUGGCUAGACUGCCUCUCUGGAUUCCUCGUCACUCAGCGGGGCAUCUCUGAGAGAAAUGCC [U47A A124G] | 0.79
UACGUAGGUGGUUUUCCCCUGAUAGUGCUAAGGGGGCCUGGAAGUUAGGACUGGGCUGAGCUCAACACAGCGUGGCAAAGUGGCUGUGGCUAGACUGCCUCUCUGGAUUCCUCGUCACUCAGCAGGGCAUCUCUGAGAGAAAUGCC [U47A A57U] | 0.08
UACGUAGGUGGUUUUCCCCUGAUAGUGCUAAGGGGGCCUGGAAGUUAGGACUGGGCCGAGCUCAACACAGCGUGGCAAAGUGGCUGUGGCUAGACUGCCUCUCUGGAUUCCUCGUCACUCAGCAGGGCAUCUCUGAGAGAAAUGCC [U47A A57C] | 0.06
UACGUAGGUGGUUUUCCCCUGAUAGUGCUAAGGGGGCCUGGAAGUUAGGACUGGGCAGAGCUCAACACAGCGUGGCAAAGUGGCUGUGGCUUGACUGCCUCUCUGGAUUCCUCGUCACUCAGCAGGGCAUCUCUGAGAGAAAUGCC [U47A A92U] | 0.5
UACGUAGGUGGUUUUCCCCUGAUAGUGCUAAGGGGGCCUGGAAGUUAGGACUGGGCAGAGCUCAACACAGCGUGGCAAAGUGGCUGUGGCUGGACUGCCUCUCUGGAUUCCUCGUCACUCAGCAGGGCAUCUCUGAGAGAAAUGCC [U47A A92G] | 0.17
UACGUAGGUGGUUUUCCCCUGAUAGUGCUAAGGGGGCCUGGAAGUUAGGACUGGGCAGAGCUCAACACAGCGUGGCAAAGUGGCUGUGGCUAGACUGCCUCUCUGGAUUCCUCGUCACUCAGCAGGGCAUCUCUGUGAGAAAUGCC [U47A A136U] | 1.48
UACGUAGGUGGUUUUCCCCUGAUAGUGCUAAGGGGGCCUGGAAGUUAGGACUGGGCAGAGCUCAACACAGCGUGGCAAAGUGGCUGUGGCUAGACUGCCUCUCUGGAUUCCUCGUCACUCAGCAGGGCAUCUCUGAGAGAAAUGCC [U47A] | 1.22
UACGUAGGUGGUUUUCCCCUGAUAGUGCUAAGGGGGCCUGGAAGUUAGGACUGGGCAGAGCUCAACACAGCGUGGCAAAGUGGCUGUGGCUAGUCUGCCUCUCUGGAUUCCUCGUCACUCAGCAGGGCAUCUCUGAGAGAAAUGCC [U47A A94U] | 0.18
UACGUAGGUGGUUUUCCCCUGAUAGUGCUAAGGGGGCCUGGAAGUUAGGACUGGGCAGAGCUCAACACAGCGUGGCAAAGUGGCUGUGGCUAGACUGCCUCUCUGGAUUCCUCGUCACUCAGCAGGGCAUCUCUGAGGGAAAUGCC [U47A A138G] | 1.39

Source: the RNAGym collection of RNA variant scans (doi:10.7554/elife.90254)
